Changes are numbered by the printed parent chain. Numbers in names are those of the source.
B1: wild-type human gp130 CBM domain displayed on the surface of yeast (receptor)
chain: LPPEKPKNLSCIVNEGKKMRCEWDRGRETHLETNFTLKSEWATHKFADCKAKRDTPTSCTVDYSTVYFVNIEVWVEAENALGKVTSDHINFDPVYKVKPNPPHNLSVINSEELSSILKLTWTNPSIKSVIILKYNIQYRTKDASTWSQIPPEDTASTRSSFTVQDLKPFTEYVFRIRCMKEDGKGYWSDWSEEASGITYED
notes: also called gp130 wild-type (WT); wild-type gp130
B2: EDE (receptor)
yeast-displayed receptor fragment: B1 chain with K45E, Y95D, K184E
notes: 3 mutations, all marked
B3: 8M (receptor)
yeast-displayed receptor fragment: B1 chain with E4K, K5R, N14D, K45E, F46L, K83R, Y95D, N100S
notes: 8 mutations, all marked; also called 8M (Rnd 1); E4K-K5R-N14D-K45E-F46L-K83R-Y95D-N100S
B4: ELDSM (receptor)
yeast-displayed receptor fragment: B1 chain with K45E, F46L, Y95D, N100S, I130M
notes: 5 mutations, all marked
B5: ELRDM (receptor)
yeast-displayed receptor fragment: B1 chain with K45E, F46L, K83R, Y95D, I130M
notes: 5 mutations, all marked
B6: human leukemia inhibitory factor (LIF), soluble (ligand)
chain: not shown
notes: also called human LIF; soluble human LIF
B7: LIFR CBMI-Ig-like-CBMII (VPRVVAID)-gp130 CBM (ELDME) heterodimeric Fc fusion (Fc fusion)
chain 1: QKKGAPHDLKCVTNNLQVWNCSWKAPSGTGRGTDYEVCIENRSRSCYQLEKTSIKIPALSHGDYEITINSLHDFGSSTSKFTLNEQNVSLIPDTPEILNLSADFSTSTLYLKWNDRGSVFPHRSNVIWEIKVLRKESMELVKLVTHNTTLNGKDTLHHWSWASDMPLECAIHFVEIRCYIDNLHFSGLEEWSDWSPVKNISWIPDSQTKVFPQDKVVPVGSDITFCCVSQEKVLSALIGRTDCPLIHLDGENVAIKVRNVSASASSGTNVVFITEDDIFGTVIFAGYPPDTPQQLNCETHDLKEIICSWNPGRVTALVGPRATSYTLVESFSGKYVRLKRAEAPTNESYQLLFQMLPNQEIYNFTLNAHNPLGRSQSTILVNITEKVYPHTPTSFKVKDINSTAVKLSWHLPGNFAKINFLCEIEIKKSNSVQEQRNVTIKGVENSSYLVALDKLNPYTLYTFRIRCSTETFWKWSKWSNKKQHLTTEASGSGSGSDKTHTCPPCPAPELLGGPSVFLFPPKPKDTLMISRTPEVTCVVVDVSHEDPQVKFNWYVDGVQVHNAKTKPREQQYNSTYRVVSVLTVLHQNWLDGKEYKCKVSNKALPAPIEKTISKAKGQPREPQVYTLPPSREEMTKNQVSLWCLVKGFYPSDIAVEWESNGQPENNYKTTPPVLDSDGSFFLYSKLTVDKSRWQQGNVFSCSVMHEALHNHYTQKSLSLSPGK
chain 2: LPPEKPKNLSCIVNEGKKMRCEWDRGRETHLETNFTLKSEWATHELADCKAKRDTPTSCTVDYSTVYFVNIEVWVEAENALGKVTSDHINFDPVDKVKPNPPHNLSVINSEELSSILKLTWTNPSIKSVMILKYNIQYRTKDASTWSQIPPEDTASTRSSFTVQDLKPFTEYVFRIRCMKEDGEGYWSDWSEEASGITYEDGSGSGSDKTHTCPPCPAPELLGGPSVFLFPPKPKDTLMISRTPEVTCVVVDVSHEDPQVKFNWYVDGVQVHNAKTKPREQQYNSTYRVVSVLTVLHQNWLDGKEYKCKVSNKALPAPIEKTISKAKGQPREPQVYTLPPSREEMTKNQVSLSCAVKGFYPSDIAVEWESNGQPENNYKTTPPVLDSDGSFFLVSKLTVDKSRWQQGNVFSCSVMHEALHNHYTQKSLSLSPGK
notes: also called LIFR-gp130 heterodimeric Fc; LIFR-gp130 Heterodimeric Fc (Eng.)
B8: wild-type human LIFR displayed on the surface of yeast (receptor)
chain: QKKGAPHDLKCVTNNLQVWNCSWKAPSGTGRGTDYEVCIENRSRSCYQLEKTSIKIPALSHGDYEITINSLHDFGSSTSKFTLNEQNVSLIPDTPEILNLSADFSTSTLYLKWNDRGSVFPHRSNVIWEIKVLRKESMELVKLVTHNTTLNGKDTLHHWSWASDMPLECAIHFVEIRCYIDNLHFSGLEEWSDWSPVKNISWIPDSQTKVFPQDKVILVGSDITFCCVSQEKVLSALIGHTNCPLIHLDGENVAIKIRNISVSASSGTNVVFTTEDNIFGTVIFAGYPPDTPQQLNCETHDLKEIICSWNPGRVTALVGPRATSYTLVESFSGKYVRLKRAEAPTNESYQLLFQMLPNQEIYNFTLNAHNPLGRSQSTILVNITEKVYPHTPTSFKVKDINSTAVKLSWHLPGNFAKINFLCEIEIKKSNSVQEQRNVTIKGVENSSYLVALDKLNPYTLYTFRIRCSTETFWKWSKWSNKKQHLTTEAS
notes: also called LIFR wild-type (WT); wild-type LIFR
B9: LIFR CBMI-Ig-like-CBMII wild-type Fc fusion homodimer (Fc fusion)
chain: B8 chain
notes: Homodimer through the Fc; The engineered counterparts use a 3x GS linker and a human IgG1 Fc; also called LIFR-WT-Fc; LIFR WT Fc; not shown: linker and Fc domain
B10: PRVAID (receptor)
yeast-displayed receptor fragment: B8 chain with L218P, H240R, I257V, V262A, T273I, N277D
B11: VPSID (receptor)
yeast-displayed receptor fragment: B8 chain with I217V, L218P, N242S, T273I, N277D
notes: 5 mutations, all marked
B12: PAID (receptor)
yeast-displayed receptor fragment: B8 chain with L218P, V262A, T273I, N277D
notes: 4 mutations, all marked
B13: PVAID (receptor)
yeast-displayed receptor fragment: B8 chain with L218P, I257V, V262A, T273I, N277D
notes: 5 mutations, all marked
B14: VPDAID (receptor)
yeast-displayed receptor fragment: B8 chain with I217V, L218P, N242D, V262A, T273I, N277D
notes: 6 mutations, all marked
B15: PID (receptor)
yeast-displayed receptor fragment: B8 chain with L218P, I260V, T273I, N277D
B16: PSVID (receptor)
yeast-displayed receptor fragment: B8 chain with L218P, N242S, I260V, T273I, N277D
notes: 5 mutations, all marked

What was measured:
[1] = biological target: B6; experiment: yeast surface display, flow cytometry; Score column of the table of sorted gp130 CBM variants (the filing gives 100 pM and 1 nM human LIF for the gp130 binding scores)
[2] = biological target: B6; experiment: yeast surface display, flow cytometry; soluble human LIF titrated (0.01 to 1000 nM), detected with a fluorescent antibody
Protocol: (§1) Binding to human LIF was measured via fluorescent antibody detection using flow cytometry.
Results for gp130 wild-type (WT) (circles), the “8M” variant (E4K-K5R-N14D-K45E-F46L-K83R-Y95D-N100S) (squares), and the ELDME variant (mutations in FIG. 4, panel A) (triangles) are shown.

[3] = biological target: B9; experiment: KinExA with soluble human LIF; KD calculated by the KinExA software
Protocol: (§2) Binding of the purified LIF inhibitors to soluble LIF was tested using KinExA. Shown in FIG. 10 are binding results for: (1) a homodimer having a WT LIFR CBMI-Ig-like-CBMII Fc fusion as each monomer; (2) a homodimer having LIFR […] Fc as each monomer;

[4] = biological target: B8; experiment: yeast-displayed receptor, no LIF added, anti-Fc detection by flow cytometry
[5] = biological target: B1; experiment: as above
[6] = biological target: B6; experiment: yeast surface display, flow cytometry; score from summed fluorescence at 10 pM and 100 pM human LIF, normalized to wild-type and to expression
[7] = biological target: B6; experiment: yeast surface display, flow cytometry; soluble human LIF titrated (0.001 to 100 nM), detected with a fluorescent antibody
Protocol: as §1
Results for LIFR wild-type (WT) (circles), the “PDD” variant (L218P-N42D-N277D) (squares), and the […] variant (mutations in FIG. 4, panel A) (triangles) are shown.

[8] = biological target: B6; experiment: KinExA with soluble human LIF; inhibitor titrated
Protocol: as §2

Binder | Score (binding score) [1] | Score (normalized binding score) [6] | other results
B1 | 1.03 |  | 
B2 | 23 |  | 
B3 | 16 |  | EC50 (read off the curve) [2]: ~10 nM
B4 | 21.9 |  | 
B5 | 22.1 |  | 
B6 |  |  | Kd [3]: 1.09 nM
B7 |  |  | binding result [4]: no binding; binding result [5]: no binding
B8 |  | 1.32 | EC50 (read off the curve) [7]: ~1 nM
B9 |  |  | EC50 (read off the curve) [8]: ~1 nM
B10 |  | 16.9 | 
B11 |  | 13.2 | 
B12 |  | 13.3 | 
B13 |  | 15.6 | 
B14 |  | 14.4 | 
B15 |  | 12.2 | 
B16 |  | 13.4 | 

Source: US20210300992A1 (Stanford University, published 2021)
